Measured values from patent US20260274955A1 (JANUX THERAPEUTICS, published 2026).

B1: Phage-597 (peptide)
peptide: YCDGHLPEYMNQCL
notes: on phage, pIII fusion
B2: Phage-569 (peptide)
peptide: YCDGHLALHMKKCL
notes: on phage, pIII fusion
B3: Phage-586 (peptide)
peptide: YCQGHIEPYLAKCL
notes: on phage, pIII fusion
B4: Phage-587 (peptide)
peptide: YCDGHLAIYMWKCL
notes: on phage, pIII fusion
B5: Phage-591 (peptide)
peptide: YCAGHLPQYIQKCL
notes: on phage, pIII fusion
B6: Phage-590 (peptide)
peptide: YCEGHLPQYMTKCI
notes: on phage, pIII fusion
B7: Phage-598 (peptide)
peptide: YCDGHNFQYMEKCL
notes: on phage, pIII fusion
B8: Phage-592 (peptide)
peptide: YCEGHLAIYQKKCL
notes: on phage, pIII fusion
B9: Phage-588 (peptide)
peptide: YCDGHAEEYMAKCL
notes: on phage, pIII fusion
B10: Phage-572 (peptide)
peptide: YCDGHSEQYIAKCL
notes: on phage, pIII fusion
B11: Phage-571 (peptide)
peptide: YCDGHLPIYQAKCL
notes: on phage, pIII fusion
B12: Phage-596 (peptide)
peptide: YCEGHSQEYMAKCL
notes: on phage, pIII fusion
B13: Phage-570 (peptide)
peptide: YCEGHIMQYMAQCL
notes: on phage, pIII fusion
B14: Phage-593 (peptide)
peptide: YCEGHAVEYMAKCL
notes: on phage, pIII fusion
B15: Phage-1140 (peptide)
peptide: PCSAGVTYAWLYCV
B16: Phage-1136 (peptide)
peptide: PCAAGAMWPWPVCL
B17: Phage-1129 (peptide)
peptide: SCSAGASLQLSQCF
B18: Phage-1133 (peptide)
peptide: LCSAGFLFQWSTCL
B19: Phage-1213 (peptide)
peptide: SCAAGAAYAWPWCL
B20: Phage-1216 (peptide)
peptide: SCAAVFSFNWPECF
B21: Phage-1215 (peptide)
peptide: LCDQFFHYNWPACL
B22: Phage-1205 (peptide)
peptide: TCAAGANYAWPVCL
B23: Phage-1143 (peptide)
peptide: LCAAGFMYEWPLCF
B24: Phage-1209 (peptide)
peptide: PCAAGAQWSWPMCL
B25: Phage-1132 (peptide)
peptide: TCAAGAQFAWPLCL
B26: Phage-1211 (peptide)
peptide: SCAAGFHYEWPQCF
B27: Phage-1212 (peptide)
peptide: SCTAGFRIHWPMCF
B28: Phage-1131 (peptide)
peptide: TCSAGAHYPWPICL
B29: Phage-1202 (peptide)
peptide: TCSAGAHYEWPKCL
B30: Phage-1139 (peptide)
peptide: LCAAGAHYSWPACF
B31: Phage-1214 (peptide)
peptide: MCTAGFSFNWPECL
B32: Phage-1130 (peptide)
peptide: RCSFRFITLAEACV
B33: Phage-1134 (peptide)
peptide: RCAAGFHYSWPNCF
B34: Phage-1141 (peptide)
peptide: MCAAGAAWAWPLCL
B35: Phage-1200 (peptide)
peptide: QCAAGATYPWPVCL
B36: Phage-1208 (peptide)
peptide: TCAAGATWTWPTCM
B37: Phage-1138 (peptide)
peptide: TCAAGASWNWPACE
B38: Phage-1201 (peptide)
peptide: TCSAGATYTWPVCF
B39: Phage-1203 (peptide)
peptide: TCSAGATYSWPLCF
B40: Phage-1204 (peptide)
peptide: TCAAGATYSWPSCF
B41: Phage-1206 (peptide)
peptide: TCAAGAHYEWPQCF
B42: Phage-1137 (peptide)
peptide: TCSAGATYSWPACL
B43: Phage-1210 (peptide)
peptide: SCAAGSTWAWPACL
B44: Phage-1217 (peptide)
peptide: TCSAGASYSWPYCM
B45: Phage-1135 (peptide)
peptide: GCAAGASYPWPACL
B46: Phage-1207 (peptide)
peptide: TCAAGATYNWPWCF
B47: Phage-1142 (peptide)
peptide: TCAAGASYPWPLCV

Molecular target: T1, anti-CD28 Fab (SEQ ID NOs: 202, 203)
T1 construct: biotinylated and captured on neutravidin coated plates in the phage ELISA
Experiment: phage ELISA on captured Fab, wells pre-incubated with CD28 antigen (competitor);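 note: clonal phage ELISA with wells pretreated with CD28 plus blocking buffer before phage addition, bound phage detected by HRP-linked anti-M13 antibody, reference wells got blocking buffer only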
T1 sequence (VH, as listed by the source, chain 1 of 2): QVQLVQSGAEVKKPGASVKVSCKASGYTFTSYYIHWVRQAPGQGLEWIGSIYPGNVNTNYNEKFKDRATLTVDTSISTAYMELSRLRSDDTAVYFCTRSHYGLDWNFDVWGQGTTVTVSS
T1 sequence (VL, as listed by the source, chain 2 of 2): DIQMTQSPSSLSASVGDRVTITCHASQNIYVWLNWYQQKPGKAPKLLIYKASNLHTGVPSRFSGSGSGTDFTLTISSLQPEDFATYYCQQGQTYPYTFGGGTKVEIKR
Procedure: (§1) Clonal phage were harvested as crude supernatants and screened via standard ELISAs. […] Prior to the addition of clonal phage, wells were incubated with blocking buffer and CD28 antigen or blocking buffer alone. Without washing or aspirating, clonal phage supernatants were then added to the wells and incubated for a short time. Wells were then washed followed by detection of bound phage using a horse radish conjugated anti-M13 antibody.

In order of falling “Anti-CD28 Fab signal in the presence of CD28” value:
1. B11  0.1
2. B4  0.09
3. B2  0.08
4. B6  0.08
5. B10  0.08
6. B1  0.07
7. B5  0.07
8. B14  0.07
9. B7  0.06
10. B8  0.06
11. B9  0.06
12. B12  0.06
13. B13  0.06
14. B3  0.05

Molecular target: anti-CD28 Fab (SEQ ID NOs: 202, 203)
Experiment: phage ELISA, Fab on plate;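 note: ELISA of crude clonal phage supernatants on the plate, wells preloaded with CD28 antigen or only blocking buffer, captured phage read out via HRP-linked anti-M13 antibody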
Target sequence in this assay (VH, as listed by the source, chain 1 of 2): as the sequence (VH, as listed by the source, chain 1 of 2) above
Target sequence in this assay (VL, as listed by the source, chain 2 of 2): as the sequence (VL, as listed by the source, chain 2 of 2) above

In order of falling “Anti-CD28 Fab signal” value:
1. B15  1.41
2. B16  1.41
3. B17  1.41
4. B18  1.41
5. B25  1.41
6. B28  1.41
7. B30  1.41
8. B32  1.41
9. B33  1.41
10. B37  1.41
11. B42  1.41
12. B45  1.41
13. B23  1.4
14. B34  1.4
15. B47  1.4
16. B35  1.13
17. B38  1.13
18. B29  1.12
19. B39  1.12
20. B40  1.1
21. B22  1.09
22. B41  1.08
23. B24  1.07
24. B36  1.07
25. B43  1.07
26. B46  1.07
27. B26  1.06
28. B27  1.06
29. B19  1.05
30. B31  1.05
31. B21  1.04
32. B20  1.01
33. B44  1

Molecular target: T1, anti-CD28 Fab (SEQ ID NOs: 202, 203)
Experiment: phage ELISA on captured Fab;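 note: ELISA with clonal phage supernatants added to wells preincubated with CD28 antigen or with blocking buffer only, bound phage detected by HRP-conjugated anti-M13 antibody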
Procedure: as §1

In order of falling “Anti-CD28 Fab (SEQ ID NOs: 202, 203) signal” value:
1. B2  1.49
2. B10  1.49
3. B11  1.49
4. B13  1.49
5. B3  1.46
6. B4  1.45
7. B9  1.45
8. B1  1.44
9. B5  1.44
10. B6  1.44
11. B7  1.44
12. B8  1.44
13. B12  1.44
14. B14  1.44
